Measurements reported in article PMC8154254, “On the Track of Long-Range Electron Transfer in B-Type Dye-Decolorizing Peroxidases: Identification of a Tyrosyl Radical by Computational Prediction and Electron Paramagnetic Resonance Spectroscopy” (Biochemistry, 2021).

Substrate: CCn1c(=NN=c2sc3cc(S(=O)(=O)O)ccc3n2CC)sc2cc(S(=O)(=O)O)ccc21
Test: purified protein
Format: biochemical, Klebsiella pneumoniae
Conditions: 40 μM H2O2, 100 nM enzyme, 50 mM phosphate-citrate pH 5.0, room temperature

B1: KpDyP (B-type Klebsiella pneumoniae dye-decolorizing peroxidase) (Klebsiella pneumoniae) (protein)
chain: MSQVQSGILPEHCRAAIWIEANLKGDVNALREASKIFVDNVATFQAKFPDAKLGAVVAFGNNVWRQLSGGEGADELKDFPVYGKGLAPSTQYDLLIHILSARHEVNFSVAQAALAAFGDAIDVKEEIHGFRWVEERDLSGFVDGTENPAGEETRREVAVIKDGVDAGGSYVFVQRWEHNLKQLNRMSVPDQEMMIGRTKDANEEIDGDERPVTSHLSRVDLKEDGKGLKIVRQSLPYGTASGTHGLYFCAYCARLYNIEQQLLSMFGDTDGKRDAMLRFTKPVTGGYYFAPSLERIQAL
notes: recombinant from E. coli BL21 (DE3) Tuner; dimer
B1 gave a Km of 20.5 ± 1.9 µM, a kcat of 3.1 ± 0.1 s⁻¹ and a kcat/Km of 150000 M⁻¹ s⁻¹.
